Reference: patent publication US20020068361A1, “METHODS OF EVALUATING SPECIFIC CELLULAR FUNCTIONS OF RECEPTOR PROTEIN TYROSINE KINASES IN A LIGAND INDEPENDENT MANNER” (priority 1997, published 2002)

Columns and labels:
rat TRKA receptor = molecular target: T1, rat TRKA receptor (Rattus norvegicus, UniProt P35739); test: Antibody/ligand recognition of rat TRKA receptor; assay type: binding
T1 construct: endogenous in cells
Excerpt: (§1) The antibody preparation used in the experiments, called CTA, was a rabbit antibody raised against the entire extracellular domain of chicken TRKA expressed in COS cells. […] A useful control for these experiments was to activate the endogenous rat TRKA receptor without influencing the introduced chimeric receptor.
(§2) While the chick receptor became phosphorylated by both treatments, activation of the rat receptor was detected only after NGF addition. […] The effects of the CTA antibody preparation were therefore not attributable to activation of endogenous TRKA receptors.

chick TRKA receptor = molecular target: T2, chick TRKA receptor (Gallus gallus, UniProt Q91009); test: Antibody/ligand recognition of chick TRKA receptor; assay type: binding, chicken; details: immunoblot or immunoprecipitation; receptor activation
T2 construct: expressed in transfected cells
Excerpt: as §1, §2

T2 sequence (Q91009 15-778): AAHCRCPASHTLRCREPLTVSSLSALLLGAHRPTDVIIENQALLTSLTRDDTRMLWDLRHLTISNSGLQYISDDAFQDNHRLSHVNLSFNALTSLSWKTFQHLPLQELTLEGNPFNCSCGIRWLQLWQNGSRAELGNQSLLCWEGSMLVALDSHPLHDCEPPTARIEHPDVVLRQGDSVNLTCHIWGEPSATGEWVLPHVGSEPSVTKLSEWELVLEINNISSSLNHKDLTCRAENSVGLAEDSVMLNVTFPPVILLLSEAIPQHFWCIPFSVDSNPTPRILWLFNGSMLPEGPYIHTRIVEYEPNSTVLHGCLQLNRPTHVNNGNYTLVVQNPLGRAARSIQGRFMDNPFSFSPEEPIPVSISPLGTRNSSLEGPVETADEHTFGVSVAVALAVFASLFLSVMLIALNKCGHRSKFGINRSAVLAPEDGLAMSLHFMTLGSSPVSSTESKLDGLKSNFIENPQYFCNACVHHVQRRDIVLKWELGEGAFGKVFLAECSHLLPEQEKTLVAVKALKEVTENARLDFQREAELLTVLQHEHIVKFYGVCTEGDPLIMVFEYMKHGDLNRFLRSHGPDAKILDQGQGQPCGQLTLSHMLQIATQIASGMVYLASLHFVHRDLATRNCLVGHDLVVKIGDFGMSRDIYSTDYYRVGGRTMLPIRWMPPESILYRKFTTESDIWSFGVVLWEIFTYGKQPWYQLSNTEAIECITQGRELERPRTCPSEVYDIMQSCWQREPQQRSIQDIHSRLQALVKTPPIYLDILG
T1 sequence (P35739 33-799): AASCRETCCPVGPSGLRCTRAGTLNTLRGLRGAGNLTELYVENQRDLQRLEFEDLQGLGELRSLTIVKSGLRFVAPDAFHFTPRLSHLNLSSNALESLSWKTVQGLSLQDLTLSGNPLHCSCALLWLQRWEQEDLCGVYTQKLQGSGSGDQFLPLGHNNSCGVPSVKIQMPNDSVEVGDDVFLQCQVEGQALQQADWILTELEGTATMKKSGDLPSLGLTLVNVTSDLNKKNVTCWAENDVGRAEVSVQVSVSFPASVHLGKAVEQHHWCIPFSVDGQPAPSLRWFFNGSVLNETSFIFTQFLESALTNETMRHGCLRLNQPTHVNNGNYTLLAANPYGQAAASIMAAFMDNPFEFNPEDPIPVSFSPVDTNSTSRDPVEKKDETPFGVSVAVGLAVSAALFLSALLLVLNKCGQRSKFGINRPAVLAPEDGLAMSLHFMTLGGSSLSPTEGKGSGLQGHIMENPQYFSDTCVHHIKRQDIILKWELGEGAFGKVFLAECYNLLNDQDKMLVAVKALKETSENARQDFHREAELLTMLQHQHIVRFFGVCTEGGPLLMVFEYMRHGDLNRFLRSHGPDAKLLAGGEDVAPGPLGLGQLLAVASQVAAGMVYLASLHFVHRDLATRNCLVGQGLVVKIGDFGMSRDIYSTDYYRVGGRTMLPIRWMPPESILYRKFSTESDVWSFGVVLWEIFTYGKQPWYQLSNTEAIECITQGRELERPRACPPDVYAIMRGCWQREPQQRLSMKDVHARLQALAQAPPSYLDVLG

“NGF: nerve growth factor, ligand which binds to the extracellular region of the TRK receptor” was tested, and the “recognition of rat TRKA receptor” value (rat TRKA receptor) was “binds both receptors” and the “recognition of chick TRKA receptor” value (chick TRKA receptor) was “binds both receptors”.
